Key:
Assay in all cases: IP/MS, LZTR1 R810W-FLAG, U87
IFT172 = IFT172 (human, UniProt Q9UG01 1-1749, limits assumed)
Summary of the method: (§1)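 Extracted peptides in 3% acetonitrile/0.1% formic acid ran on a 50 cm C18 column into an Orbitrap Fusion, with MaxQuant identification and spectral counting.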

SMPD4 = biological target: T1, SMPD4 (human, UniProt Q9NXE4 1-866, limits assumed)
T1 sequence (looked up): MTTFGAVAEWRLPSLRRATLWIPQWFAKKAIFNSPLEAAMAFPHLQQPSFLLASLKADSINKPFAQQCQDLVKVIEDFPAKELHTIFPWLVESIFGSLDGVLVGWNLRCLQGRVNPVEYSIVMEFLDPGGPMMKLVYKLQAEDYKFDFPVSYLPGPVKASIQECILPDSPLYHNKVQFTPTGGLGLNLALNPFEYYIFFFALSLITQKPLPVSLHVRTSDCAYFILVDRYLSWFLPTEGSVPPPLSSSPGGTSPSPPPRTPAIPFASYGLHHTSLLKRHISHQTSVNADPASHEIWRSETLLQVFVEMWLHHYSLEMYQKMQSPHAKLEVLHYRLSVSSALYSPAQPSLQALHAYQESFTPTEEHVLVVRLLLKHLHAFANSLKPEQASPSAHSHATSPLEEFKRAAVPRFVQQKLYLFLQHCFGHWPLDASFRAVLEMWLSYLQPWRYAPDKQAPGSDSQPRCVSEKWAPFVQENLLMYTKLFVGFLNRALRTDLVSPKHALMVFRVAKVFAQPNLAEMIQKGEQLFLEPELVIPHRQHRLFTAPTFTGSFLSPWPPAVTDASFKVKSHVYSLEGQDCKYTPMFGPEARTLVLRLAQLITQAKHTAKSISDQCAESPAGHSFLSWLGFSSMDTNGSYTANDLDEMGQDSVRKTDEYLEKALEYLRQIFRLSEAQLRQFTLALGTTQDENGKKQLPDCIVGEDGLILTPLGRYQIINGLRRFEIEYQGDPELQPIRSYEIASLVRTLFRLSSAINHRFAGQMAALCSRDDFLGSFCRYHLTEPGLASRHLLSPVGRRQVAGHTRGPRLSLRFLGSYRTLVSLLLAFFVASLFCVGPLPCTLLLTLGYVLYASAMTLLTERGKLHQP
Summary of the method: as §1

RANBP6 = biological target: T2, RANBP6 (human, UniProt O60518 2-1105)
T2 sequence (looked up): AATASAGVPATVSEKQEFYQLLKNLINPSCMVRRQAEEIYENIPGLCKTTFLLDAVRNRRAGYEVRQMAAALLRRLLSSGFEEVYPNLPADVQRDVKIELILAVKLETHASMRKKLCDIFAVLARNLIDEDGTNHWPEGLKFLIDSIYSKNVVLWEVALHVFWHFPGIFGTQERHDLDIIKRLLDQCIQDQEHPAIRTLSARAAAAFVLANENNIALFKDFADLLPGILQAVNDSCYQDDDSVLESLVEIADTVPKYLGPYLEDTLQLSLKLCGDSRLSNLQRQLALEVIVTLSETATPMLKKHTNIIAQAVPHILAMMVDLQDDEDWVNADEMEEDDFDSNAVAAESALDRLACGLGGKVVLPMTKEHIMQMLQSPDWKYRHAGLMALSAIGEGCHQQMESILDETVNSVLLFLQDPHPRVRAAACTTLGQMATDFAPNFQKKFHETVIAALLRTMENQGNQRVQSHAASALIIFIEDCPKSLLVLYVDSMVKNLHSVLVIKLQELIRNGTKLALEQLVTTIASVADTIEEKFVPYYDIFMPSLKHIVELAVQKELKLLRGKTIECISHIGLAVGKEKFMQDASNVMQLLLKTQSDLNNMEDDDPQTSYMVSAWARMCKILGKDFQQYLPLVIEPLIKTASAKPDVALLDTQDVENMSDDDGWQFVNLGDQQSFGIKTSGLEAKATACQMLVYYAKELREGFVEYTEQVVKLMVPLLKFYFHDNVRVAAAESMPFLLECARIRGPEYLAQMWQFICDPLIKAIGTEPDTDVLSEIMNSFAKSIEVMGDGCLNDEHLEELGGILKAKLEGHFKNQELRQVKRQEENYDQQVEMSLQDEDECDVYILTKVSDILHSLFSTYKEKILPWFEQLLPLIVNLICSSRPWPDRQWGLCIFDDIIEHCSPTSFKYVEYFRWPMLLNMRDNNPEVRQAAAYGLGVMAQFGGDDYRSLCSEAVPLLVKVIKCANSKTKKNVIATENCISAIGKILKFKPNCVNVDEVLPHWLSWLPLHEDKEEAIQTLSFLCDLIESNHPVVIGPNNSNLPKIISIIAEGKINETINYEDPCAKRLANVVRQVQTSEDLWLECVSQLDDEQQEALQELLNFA
Summary of the method: as §1

Measured: binding result

IFT172, sequence (Q9UG01 whole entry, the tested form may be a part): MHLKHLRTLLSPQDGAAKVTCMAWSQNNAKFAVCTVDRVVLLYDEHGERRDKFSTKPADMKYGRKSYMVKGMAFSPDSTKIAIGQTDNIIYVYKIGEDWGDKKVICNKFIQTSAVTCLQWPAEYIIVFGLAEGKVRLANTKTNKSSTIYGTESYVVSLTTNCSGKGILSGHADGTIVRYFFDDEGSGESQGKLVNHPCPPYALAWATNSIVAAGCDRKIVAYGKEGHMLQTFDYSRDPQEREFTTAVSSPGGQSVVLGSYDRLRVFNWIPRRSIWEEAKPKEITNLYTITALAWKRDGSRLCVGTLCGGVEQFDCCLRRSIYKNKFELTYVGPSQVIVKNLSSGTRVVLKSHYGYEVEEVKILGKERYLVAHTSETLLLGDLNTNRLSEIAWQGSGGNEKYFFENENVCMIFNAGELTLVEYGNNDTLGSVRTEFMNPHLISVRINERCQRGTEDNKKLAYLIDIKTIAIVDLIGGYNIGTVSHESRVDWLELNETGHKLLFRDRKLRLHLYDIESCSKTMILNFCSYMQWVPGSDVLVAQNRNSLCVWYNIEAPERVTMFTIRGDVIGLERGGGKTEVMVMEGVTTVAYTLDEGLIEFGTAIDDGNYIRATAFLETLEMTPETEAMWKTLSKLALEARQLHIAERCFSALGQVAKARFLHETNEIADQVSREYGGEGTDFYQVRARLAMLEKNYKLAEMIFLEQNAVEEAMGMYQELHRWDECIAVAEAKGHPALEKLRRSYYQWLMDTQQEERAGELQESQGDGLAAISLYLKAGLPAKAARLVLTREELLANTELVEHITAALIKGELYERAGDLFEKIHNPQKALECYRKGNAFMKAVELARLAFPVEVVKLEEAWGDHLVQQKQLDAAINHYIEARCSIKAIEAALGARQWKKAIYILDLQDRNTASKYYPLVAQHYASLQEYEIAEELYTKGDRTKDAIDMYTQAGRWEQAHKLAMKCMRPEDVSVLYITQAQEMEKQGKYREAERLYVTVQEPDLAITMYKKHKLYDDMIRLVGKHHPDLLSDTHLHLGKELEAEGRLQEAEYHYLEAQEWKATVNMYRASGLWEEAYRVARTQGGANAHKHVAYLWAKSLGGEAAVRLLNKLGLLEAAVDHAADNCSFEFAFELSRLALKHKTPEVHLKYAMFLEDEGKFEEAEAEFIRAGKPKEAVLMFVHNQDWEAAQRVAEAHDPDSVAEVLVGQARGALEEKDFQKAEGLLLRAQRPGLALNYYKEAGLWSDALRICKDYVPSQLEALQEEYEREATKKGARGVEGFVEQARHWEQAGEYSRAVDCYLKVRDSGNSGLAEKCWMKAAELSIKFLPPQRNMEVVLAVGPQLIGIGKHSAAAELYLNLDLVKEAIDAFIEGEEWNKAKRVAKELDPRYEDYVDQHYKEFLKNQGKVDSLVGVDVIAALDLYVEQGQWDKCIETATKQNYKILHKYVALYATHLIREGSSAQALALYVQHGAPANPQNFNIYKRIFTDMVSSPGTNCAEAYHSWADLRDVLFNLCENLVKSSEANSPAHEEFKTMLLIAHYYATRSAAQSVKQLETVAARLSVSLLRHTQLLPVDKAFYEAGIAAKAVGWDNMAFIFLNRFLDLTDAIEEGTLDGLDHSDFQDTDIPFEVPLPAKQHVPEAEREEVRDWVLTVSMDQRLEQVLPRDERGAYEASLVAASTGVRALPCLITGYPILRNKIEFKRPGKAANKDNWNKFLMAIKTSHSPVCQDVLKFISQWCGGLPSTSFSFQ

B1: LZTR1 R810W-FLAG (other, human, UniProt Q8N653 1-840, looked up)
chain: MAGPGSTGGQIGAAALAGGARSKVAPSVDFDHSCSDSVEYLTLNFGPFETVHRWRRLPPCDEFVGARRSKHTVVAYKDAIYVFGGDNGKTMLNDLLRFDVKDCSWCRAFTTGTPPAPRYHHSAVVYGSSMFVFGGYTGDIYSNSNLKNKNDLFEYKFATGQWTEWKIEGRLPVARSAHGATVYSDKLWIFAGYDGNARLNDMWTIGLQDRELTCWEEVAQSGEIPPSCCNFPVAVCRDKMFVFSGQSGAKITNNLFQFEFKDKTWTRIPTEHLLRGSPPPPQRRYGHTMVAFDRHLYVFGGAADNTLPNELHCYDVDFQTWEVVQPSSDSEVGGAEVPERACASEEVPTLTYEERVGFKKSRDVFGLDFGTTSAKQPTQPASELPSGRLFHAAAVISDAMYIFGGTVDNNIRSGEMYRFQFSCYPKCTLHEDYGRLWESRQFCDVEFVLGEKEECVQGHVAIVTARSRWLRRKITQARERLAQKLEQEAAPVPREAPGVAAGGARPPLLHVAIREAEARPFEVLMQFLYTDKIKYPRKGHVEDVLLIMDVYKLALSFQLCRLEQLCRQYIEASVDLQNVLVVCESAARLQLSQLKEHCLNFVVKESHFNQVIMMKEFERLSSPLIVEIVRRKQQPPPRTPLDQPVDIGTSLIQDMKAYLEGAGAEFCDITLLLDGHPRPAHKAILAARSSYFEAMFRSFMPEDGQVNISIGEMVPSRQAFESMLRYIYYGEVNMPPEDSLYLFAAPYYYGFYNNRLQAYCKQNLEMNVTVQNVLQILEAADKTQALDMKRHCLHIIVHQFTKVSKLPTLWSLSQQLLLDIIDSLASHISDKQCAELGADI
notes: Stably expressed in U87 cells by lentivirus; also called LZTR1-FLAG-R810W; LZTR1 RW; not shown: FLAG tag
binds: all assays above
